Experiments:
[1] = target: ITGA7 mutant S977A on HEK-293T cells (human) (UniProt P05556); test: high-throughput flow cytometry on HEK-293T cells with the ITGA7 alanine mutant, high stringency, normalized to wild type
[2] = target: ITGA7 mutant P980A on HEK-293T cells (human) (UniProt P05556); test: as above
Chain of ITGA7 mutant P980A on HEK-293T cells (human) (chain, as listed by the source P980A P980A, chain 1 of 2): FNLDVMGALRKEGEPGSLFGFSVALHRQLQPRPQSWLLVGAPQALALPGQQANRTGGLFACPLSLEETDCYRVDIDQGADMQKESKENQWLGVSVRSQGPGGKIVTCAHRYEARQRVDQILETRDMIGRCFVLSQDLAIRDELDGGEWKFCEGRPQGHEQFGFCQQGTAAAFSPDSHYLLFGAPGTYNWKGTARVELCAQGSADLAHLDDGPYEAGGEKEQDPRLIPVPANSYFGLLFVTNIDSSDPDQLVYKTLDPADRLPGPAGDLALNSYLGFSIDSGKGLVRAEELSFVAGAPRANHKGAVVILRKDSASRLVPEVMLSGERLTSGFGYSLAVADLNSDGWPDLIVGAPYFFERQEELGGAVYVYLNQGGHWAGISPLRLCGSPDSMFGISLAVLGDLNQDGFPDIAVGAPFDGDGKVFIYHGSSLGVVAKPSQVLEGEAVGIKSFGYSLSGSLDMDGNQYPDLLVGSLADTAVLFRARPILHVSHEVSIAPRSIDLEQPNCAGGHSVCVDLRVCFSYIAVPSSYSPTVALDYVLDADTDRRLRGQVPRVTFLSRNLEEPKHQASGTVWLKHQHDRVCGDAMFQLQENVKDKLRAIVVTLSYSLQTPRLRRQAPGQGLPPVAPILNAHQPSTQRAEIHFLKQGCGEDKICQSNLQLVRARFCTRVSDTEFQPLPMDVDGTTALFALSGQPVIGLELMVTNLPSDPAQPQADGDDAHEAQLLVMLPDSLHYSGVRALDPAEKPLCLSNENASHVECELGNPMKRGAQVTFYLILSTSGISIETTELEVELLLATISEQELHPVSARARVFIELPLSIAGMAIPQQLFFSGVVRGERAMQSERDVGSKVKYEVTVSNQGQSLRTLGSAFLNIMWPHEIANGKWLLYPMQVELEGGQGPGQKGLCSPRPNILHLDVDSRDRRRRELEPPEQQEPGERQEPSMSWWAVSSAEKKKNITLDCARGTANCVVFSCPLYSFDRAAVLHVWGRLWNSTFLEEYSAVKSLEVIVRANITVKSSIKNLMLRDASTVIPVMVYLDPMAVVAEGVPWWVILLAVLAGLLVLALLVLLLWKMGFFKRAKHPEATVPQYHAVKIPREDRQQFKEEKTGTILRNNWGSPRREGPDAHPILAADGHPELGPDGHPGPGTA
Chain of ITGA7 mutant P980A on HEK-293T cells (human) (P05556 21-798, chain 2 of 2): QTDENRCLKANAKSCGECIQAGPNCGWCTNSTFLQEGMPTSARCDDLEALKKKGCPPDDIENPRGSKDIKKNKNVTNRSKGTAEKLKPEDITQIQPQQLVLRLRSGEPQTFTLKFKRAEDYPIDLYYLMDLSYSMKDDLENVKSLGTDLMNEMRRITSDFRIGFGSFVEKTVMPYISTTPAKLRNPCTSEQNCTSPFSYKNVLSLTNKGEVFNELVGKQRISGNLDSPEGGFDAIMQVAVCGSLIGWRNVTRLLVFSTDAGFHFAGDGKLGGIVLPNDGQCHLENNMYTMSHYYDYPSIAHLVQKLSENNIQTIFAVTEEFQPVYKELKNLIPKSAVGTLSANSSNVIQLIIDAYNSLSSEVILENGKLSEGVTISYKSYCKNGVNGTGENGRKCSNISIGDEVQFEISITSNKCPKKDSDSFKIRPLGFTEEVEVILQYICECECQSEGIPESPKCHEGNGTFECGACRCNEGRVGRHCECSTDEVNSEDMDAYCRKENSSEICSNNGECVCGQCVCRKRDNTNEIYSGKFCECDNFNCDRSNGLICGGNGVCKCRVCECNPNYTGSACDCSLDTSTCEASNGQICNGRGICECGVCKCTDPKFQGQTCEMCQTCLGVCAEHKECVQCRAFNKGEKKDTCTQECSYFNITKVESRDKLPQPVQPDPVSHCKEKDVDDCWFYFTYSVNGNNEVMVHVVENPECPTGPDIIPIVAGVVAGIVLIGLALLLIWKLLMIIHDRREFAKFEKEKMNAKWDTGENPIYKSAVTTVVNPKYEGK

Chain of ITGA7 mutant S977A on HEK-293T cells (human) (chain, as listed by the source S977A S977A, chain 1 of 2): as the sequence (chain, as listed by the source P980A P980A, chain 1 of 2) above, with S944A, A947P counted along it
Chain of ITGA7 mutant S977A on HEK-293T cells (human) (P05556 21-798, chain 2 of 2): as the sequence (P05556 21-798, chain 2 of 2) above

Binding Reactivity (% WT) [1]: 8 % WT
Binding Reactivity (% WT) [2]: 1.1 % WT
B1: VL3VHK20TFT Fab (Fab, V domains shown)
VH: QVQLVQSGAEVKKPGASVKVSCKASGYTFTKYWINWVRQAPGQGLEWMGIIYPGSSTSNYNEKFKTRVTMTVDTSTSTAYMELSSLRSEDTAVYYCVKNDNWGQGTLVTVSS
VL: DIQMTQSPSSLSASVGDRVTITCRASESVDNYGISFMNWFQQKPGKAPKLLIYAASDLGSGVPSRFSGSGSGTDFTLTISSLQPEDFATYYCHQSKEVPYTFGQGTKLEIK

Reference: patent US20210147526A1
